Assay results published in patent US20200157212A1 (Pfizer, published 2020).
Substitutions are numbered along the chain they refer to.

B1: 93H2 (antibody, human IgG1, kappa, V domains shown)
VH: EVQLVQSGAEVKKPGASVKVSCKASGYTFTGYYMHWVRQAPGQGLEWMGWINPNSGATNFPQKFQGRVTMTRDTSITTAYMDLSRLRSDDTAVYYCARESGDDAFDIWGQGTMVTVSS
VL: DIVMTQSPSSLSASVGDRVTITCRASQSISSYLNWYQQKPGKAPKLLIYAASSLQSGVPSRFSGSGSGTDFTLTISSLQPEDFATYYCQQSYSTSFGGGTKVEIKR
notes: also called parental 93H2; 93H2 mAb
B2: Abcs55 (antibody, human IgG1, kappa, V domains shown)
VH: B1 VH with N54K, S55D, A57D, N59E
VL: DIVMTQSPSSLSASVGDRVTITCRASQSISSYLNWYQQKPGKAPKLLIYAASSLQYGVPSRFSGSGSGTDFTLTISSLQPEDFATYYCQQSYSTSFGGGTKVEIKR
notes: chain-shuffled IgG
B3: CTIR2-14 (antibody, human IgG1, kappa, V domains shown)
VH: B1 VH with T30R, Y33A, N52D, N54R, S55T, A57L, N59K
VL: B2 VL with S28K, Y92L, S93E, T94L, S95G
notes: CDR-shuffled IgG
B4: CTIR2-16 (antibody, human IgG1, kappa, V domains shown)
VH: B1 VH with T30R, Y33A, N52D, N54R, S55T, A57L, N59K
VL: B2 VL with S28K, Y92V, S93G, T94L, S95F
notes: CDR-shuffled IgG
B5: Abcs35 (antibody, human IgG1, kappa)
heavy: EVQLVQSGAEVKKPGASVKVSCKASGYTFTGYYMHWVRQAPGQGLEWMGWINPKNGDTEFPQKFQGRVTMTRDTSITTAYMDLSRLRSDDTAVYYCARESGDDAFDIWGQGTMVTVSSASTKGPSVFPLAPSSKSTSGGTAALGCLVKDYFPEPVTVSWNSGALTSGVHTFPAVLQSSGLYSLSSVVTVPSSSLGTQTYICNVNHKPSNTKVDKKVEPKSCDKTHTCPPCPAPEAAGAPSVFLFPPKPKDTLMISRTPEVTCVVVDVSHEDPEVKFNWYVDGVEVHNAKTKPREEQYNSTYRVVSVLTVLHQDWLNGKEYKCKVSNKALPAPIEKTISKAKGQPREPQVYTLPPSREEMTKNQVSLTCLVKGFYPSDIAVEWESNGQPENNYKTTPPVLDSDGSFFLYSKLTVDKSRWQQGNVFSCSVMHEALHNHYTQKSLSLSPGK
light: DIVMTQSPSSLSASVGDRVTITCRASQSISSYLNWYQQKPGKAPKLLIYAASSLQSGVPSRFSGSGSGTDFTLTISSLQPEDFATYYCQQSVGLFFGGGTKVEIKRTVAAPSVFIFPPSDEQLKSGTASVVCLLNNFYPREAKVQWKVDNALQSGNSQESVTEQDSKDSTYSLSSTLTLSKADYEKHKVYACEVTHQGLSSPVTKSFNRGEC
notes: fully human IgG1; VH of Ab96 with VL of Ab123
B6: Abcs25 (antibody, human IgG1, kappa, V domains shown)
VH: B1 VH with N54K, S55D, A57D, N59E
VL: B2 VL with Y56S, Y92V, S93G, T94L
notes: chain-shuffled IgG
B7: CTIR2-15 (antibody, human IgG1, kappa, V domains shown)
VH: B1 VH with T30R, Y33A, N52D, N54R, S55T, A57L, N59K
VL: B2 VL with S28K, Y92V, S93G, T94L
notes: CDR-shuffled IgG
B8: Abcs20 (antibody, human IgG1, kappa, V domains shown)
VH: B1 VH with N54K, S55N, A57D, N59E
VL: B2 VL with Y56S, Y92V, S93G, T94L
notes: chain-shuffled IgG
B9: Abcs40 (antibody, human IgG1, kappa, V domains shown)
VH: B1 VH with N54K, S55D, A57D, N59E
VL: B2 VL with Y56S, Y92V, S93G, T94L, S95F
notes: chain-shuffled IgG

How the values were obtained:
Rat ROBO2 on cells [1] = target: T1, Rat ROBO2 on cells (rat, UniProt Q7TPD3 22-1469 (mouse entry)); test: cell-based or functional assay
T1 chain: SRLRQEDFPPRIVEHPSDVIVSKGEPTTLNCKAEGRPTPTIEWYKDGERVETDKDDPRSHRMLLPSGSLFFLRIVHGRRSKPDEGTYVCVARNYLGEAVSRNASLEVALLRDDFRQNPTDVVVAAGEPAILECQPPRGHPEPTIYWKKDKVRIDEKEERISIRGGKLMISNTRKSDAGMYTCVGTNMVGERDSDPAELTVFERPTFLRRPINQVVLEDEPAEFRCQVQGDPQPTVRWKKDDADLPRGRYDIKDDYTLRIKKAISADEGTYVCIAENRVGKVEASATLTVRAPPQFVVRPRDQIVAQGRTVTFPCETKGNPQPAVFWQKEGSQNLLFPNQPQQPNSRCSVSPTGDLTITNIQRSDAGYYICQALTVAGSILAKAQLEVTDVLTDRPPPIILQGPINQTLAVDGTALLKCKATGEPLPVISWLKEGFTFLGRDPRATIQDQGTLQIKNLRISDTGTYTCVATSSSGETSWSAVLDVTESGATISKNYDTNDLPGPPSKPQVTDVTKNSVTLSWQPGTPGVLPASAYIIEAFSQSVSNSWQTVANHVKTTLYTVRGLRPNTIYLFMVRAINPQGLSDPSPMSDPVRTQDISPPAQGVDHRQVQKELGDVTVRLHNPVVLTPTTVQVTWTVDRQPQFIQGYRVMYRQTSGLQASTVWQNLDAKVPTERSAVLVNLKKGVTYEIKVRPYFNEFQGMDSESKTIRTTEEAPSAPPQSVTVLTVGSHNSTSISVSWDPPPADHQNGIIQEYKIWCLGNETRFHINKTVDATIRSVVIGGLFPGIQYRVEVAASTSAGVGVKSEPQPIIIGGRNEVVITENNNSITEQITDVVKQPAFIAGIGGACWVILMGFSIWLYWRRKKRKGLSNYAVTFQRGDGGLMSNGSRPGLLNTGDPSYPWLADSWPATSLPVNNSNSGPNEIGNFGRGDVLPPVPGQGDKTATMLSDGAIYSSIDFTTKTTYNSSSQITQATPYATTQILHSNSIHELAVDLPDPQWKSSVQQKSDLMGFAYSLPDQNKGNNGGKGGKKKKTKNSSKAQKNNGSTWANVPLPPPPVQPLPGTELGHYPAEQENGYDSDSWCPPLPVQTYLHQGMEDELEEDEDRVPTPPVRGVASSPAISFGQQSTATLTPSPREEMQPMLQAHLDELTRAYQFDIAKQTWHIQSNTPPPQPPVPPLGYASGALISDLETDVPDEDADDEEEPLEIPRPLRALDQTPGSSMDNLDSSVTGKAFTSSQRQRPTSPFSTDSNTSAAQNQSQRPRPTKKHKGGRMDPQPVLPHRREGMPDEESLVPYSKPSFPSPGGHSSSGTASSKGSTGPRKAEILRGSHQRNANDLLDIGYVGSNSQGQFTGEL

Rat ROBO2 on cells [2] = target: T1, Rat ROBO2 on cells; test: flow cytometry, HEK293 cells, average of n = 3
Procedure: Binding of the antibodies was detected using a secondary fluorochrome conjugated anti-human IgG F(ab′)₂ antibody and samples were analyzed on a Fortessa cytometer (BD Biosciences). The fold ROBO2 selectivity was calculated as the geometric mean fluorescence intensity (Geo MFI) with ROBO2 cells/Geo MFI with ROBO1 cells. A fold change higher than 3 was considered to be ROBO2 specific (Table 2, Fold Selectivity). Some affinity matured clones had increased ROBO1 reactivity, for example Abcs 55, CTI-R2-10 and CTIR2-13.
Based upon several criteria, Abcs25 and Abcs35 were selected for further characterization. Using flow cytometry, improvement in the binding EC₅₀ to human ROBO2 relative to the parental 93H2 was evaluated. Starting at 6.7 nM, 11-point, 3-fold dilution series were made for each antibody and used to stain HEK293 overexpressing human ROBO2 as described above for the ROBO2 fold selectivity (Example 2). […] In addition to measuring improved binding to human ROBO2, it was important to ensure that high affinity binding to both cynomolgus monkey ROBO2 and rat ROBO2 was maintained. Using HEK293 cells overexpressing either cynomolgus monkey ROBO2 or rat ROBO2, the relative dose-dependent binding of 93H2, Abcs25 and Abcs35 was evaluated as described above. High affinity binding to both cynomolgus monkey and rat ROBO2 was maintained in Abcs25 and Abcs35 (Table 4). […] Briefly, Abcs35 was immobilized to 300 resonance units (RU) on a CM5 chip. Association of ROBO2 Ig1-Ig2-His (ROBO2) was measured over 5 minutes and dissociation was followed for a period of 10 minutes.

Binder | IC50 (nM), SVZa assay (Rat ROBO2 on cells [1]) [nM] | EC50 (Rat ROBO2 on cells [2]) [nM]
B1 | 1.69 | 1.2
B2 | 0.98 | 
B3 | 0.11 | 
B4 | 0.41 | 
B5 | 0.039 | 0.048
B6 | 0.31 | 0.062
B7 | 0.02 | 
B8 | 0.47 | 
B9 | 0.11 | 
